Measured values from PMC5828407 (2018).

B1: peptide F4ac 200–218 [modified: FITC-Ahx on the N-terminus; FITC-Ahx on the N-terminus] [Escherichia coli] / porcine aminopeptidase N (APN), His-tagged whole protein [porcine] (parent complex)
chain 1: TKLFGSLSRNDILGQIQRV
chain 2: MAKGFYISKALGILGILLGVAAVATIIALSVVYAQEKNKNAEHVPQAPTSPTITTTAAITLDQSKPWNRYRLPTTLLPDSYNVTLRPYLTPNADGLYIFKGKSIVRLLCQEPTDVIIIHSKKLNYTTQGHMVVLRGVGDSQVPEIDRTELVELTEYLVVHLKGSLQPGHMYEMESEFQGELADDLAGFYRSEYMEGNVKKVLATTQMQSTDARKSFPCFDEPAMKATFNITLIHPNNLTALSNMPPKGSSTPLAEDPNWSVTEFETTPVMSTYLLAYIVSEFQSVNETAQNGVLIRIWARPNAIAEGHGMYALNVTGPILNFFANHYNTSYPLPKSDQIALPDFNAGAMENWGLVTYRENALLFDPQSSSISNKERVVTVIAHELAHQWFGNLVTLAWWNDLWLNEGFASYVEYLGADHAEPTWNLKDLIVPGDVYRVMAVDALASSHPLTTPAEEVNTPAQISEMFDSISYSKGASVIRMLSNFLTEDLFKEGLASYLHAFAYQNTTYLDLWEHLQKAVDAQTSIRLPDTVRAIMDRWTLQMGFPVITVDTKTGNISQKHFLLDSESNVTRSSAFDYLWIVPISSIKNGVMQDHYWLRDVSQAQNDLFKTASDDWVLLNVNVTGYFQVNYDEDNWRMIQHQLQTNLSVIPVINRAQVIYDSFNLATAHMVPVTLALDNTLFLNGEKEYMPWQAALSSLSYFSLMFDRSEVYGPMKKYLRKQVEPLFQHFETLTKNWTERPENLMDQYSEINAISTACSNGLPQCENLAKTLFDQWMSDPENNPIHPNLRSTIYCNAIAQGGQDQWDFAWGQLQQAQLVNEADKLRSALACSNEVWLLNRYLGYTLNPDLIRKQDATSTINSIASNVIGQPLAWDFVQSNWKKLFQDYGGGSFSFSNLIQGVTRRFSSEFELQQLEQFKKNNMDVGFGSGTRALEQALEKTKANIKWVKENKEVVLNWFIEHS
B2: peptide F4ad 200–218 [modified: FITC-Ahx on the N-terminus; FITC-Ahx on the N-terminus] [Escherichia coli] / porcine aminopeptidase N (APN), His-tagged whole protein [porcine] (parent complex)
chain 1: ARTELFGSLSKNDILGQIQ
chain 2: B1 chain 2
B3: peptide F4ab 148–160 [modified: FITC-Ahx on the N-terminus; FITC-Ahx on the N-terminus] [Escherichia coli] / porcine aminopeptidase N (APN), His-tagged whole protein [porcine] (parent complex)
chain 1: NASYAGVFGKGGV
chain 2: B1 chain 2

Variants of: B1
Assay: ELISA; parent: 29; read off a plot

Row | Variant | response
1 | chain 1 L3A | ~73 relative value APN/PBS at 450 nm
2 | chain 1 G5A | ~20 relative value APN/PBS at 450 nm
3 | chain 1 G14A | ~6.5 relative value APN/PBS at 450 nm
4 | chain 1 N10A | ~15 relative value APN/PBS at 450 nm
5 | chain 1 S8A | ~27 relative value APN/PBS at 450 nm
6 | chain 1 K2A | ~48 relative value APN/PBS at 450 nm
7 | chain 1 R18A | ~6.5 relative value APN/PBS at 450 nm
8 | chain 1 L7A | ~6.5 relative value APN/PBS at 450 nm
9 | chain 1 L13A | ~13 relative value APN/PBS at 450 nm

Variants of: B2
Assay: ELISA; parent: 55; read off a plot

Row | Variant | response
10 | chain 1 A1E | ~53 relative value APN/PBS at 450 nm

Variants of: B3
Assay: ELISA; parent: 30; read off a plot

Row | Variant | response
11 | chain 1 G12A | ~28 relative value APN/PBS at 450 nm
